Data set [1] concerns the molecule itself. Kind of data set: cross-linking; COS-7 cells fixed with 4% para-formaldehyde 24 h after transfection, postfixation extraction with 0.2% Triton X-100 (or digitonin); extracts, pellets and unfixed lysates on SDS-PAGE, anti-Myc immunoblot. A general note: In western blotting, separated proteins are transferred to a membrane and probed.
Data set [2] concerns the molecule itself. The data set is described as follows: cross-linking; data not shown: para-formaldehyde fixation, postfixation Triton X-100 extraction, immunoblot.

One may read the stoichiometry N as a count of units in the complex or per binding partner.

B1: HsPex11pβ-Myc (natural protein, human, UniProt O96011 1-259, looked up)
chain: MDAWVRFSAQSQARERLCRAAQYACSLLGHALQRHGASPELQKQIRQLESHLSLGRKLLRLGNSADALESAKRAVHLSDVVLRFCITVSHLNRALYFACDNVLWAGKSGLAPRVDQEKWAQRSFRYYLFSLIMNLSRDAYEIRLLMEQESSACSRRLKGSGGGVPGGSETGGLGGPGTPGGGLPQLALKLRLQVLLLARVLRGHPPLLLDVVRNACDLFIPLDKLGLWRCGPGIVGLCGLVSSILSILTLIYPWLRLKP
notes: human Pex11pβ (HsPex11pβ), peroxisomal membrane protein 11B; also called Pex11pβ-Myc (WT); wild type Pex11pβ-Myc; source: COS-7, transfected; cross-linked in cells, then in detergent extract or lysate; not shown: Myc, C-terminal, kept
Consider B1, for which, in data set [1], the “stoichiometry N” value was found to be 2.

B2: Pex11pβ-Myc^C18S-C25S-C85S (natural protein, human, UniProt O96011 1-259, looked up)
chain: MDAWVRFSAQSQARERLSRAAQYASSLLGHALQRHGASPELQKQIRQLESHLSLGRKLLRLGNSADALESAKRAVHLSDVVLRFSITVSHLNRALYFACDNVLWAGKSGLAPRVDQEKWAQRSFRYYLFSLIMNLSRDAYEIRLLMEQESSACSRRLKGSGGGVPGGSETGGLGGPGTPGGGLPQLALKLRLQVLLLARVLRGHPPLLLDVVRNACDLFIPLDKLGLWRCGPGIVGLCGLVSSILSILTLIYPWLRLKP
notes: human Pex11pβ with the three N-terminal cysteines replaced by serine; also called triple mutant; source: COS-7, transfected; cross-linked in cells, then in Triton X-100 extract; not shown: Myc, C-terminal, kept
Turning to B2, the “stoichiometry N” value in data set [2] is 2.

Values taken from PMC3538539, “Self-Interaction of Human Pex11pβ during Peroxisomal Growth and Division” (PLoS ONE, 2013).
